Measurements reported in paper PMC5770238 (Science (New York, N.Y.), 2017).
Like-named read-outs stand apart in the source and are kept apart here.

Legend:
Test in all cases: fluorescence polarisation
[1] = molecular target: T1, Hsp104 T317A (sensor 1 ATPase mutant in NBD1) (S. cerevisiae, UniProt P31539 1-908, T317A)
[2] = molecular target: T2, Hsp104 N728A (sensor 1 ATPase mutant in NBD2) (S. cerevisiae, UniProt P31539 1-908, N728A)
[3] = molecular target: T3, Hsp104 (S. cerevisiae AAA+ disaggregase), wild type (S. cerevisiae, UniProt P31539 1-908)
[4] = molecular target: T1, Hsp104 T317A (sensor 1 ATPase mutant in …); remark: listed apart in the source
[5] = molecular target: T2, Hsp104 N728A (sensor 1 ATPase mutant in …); remark: listed apart in the source
[6] = molecular target: T3, Hsp104 (S. cerevisiae AAA+ …); remark: listed apart in the source

T1 sequence (P31539 whole entry T317A): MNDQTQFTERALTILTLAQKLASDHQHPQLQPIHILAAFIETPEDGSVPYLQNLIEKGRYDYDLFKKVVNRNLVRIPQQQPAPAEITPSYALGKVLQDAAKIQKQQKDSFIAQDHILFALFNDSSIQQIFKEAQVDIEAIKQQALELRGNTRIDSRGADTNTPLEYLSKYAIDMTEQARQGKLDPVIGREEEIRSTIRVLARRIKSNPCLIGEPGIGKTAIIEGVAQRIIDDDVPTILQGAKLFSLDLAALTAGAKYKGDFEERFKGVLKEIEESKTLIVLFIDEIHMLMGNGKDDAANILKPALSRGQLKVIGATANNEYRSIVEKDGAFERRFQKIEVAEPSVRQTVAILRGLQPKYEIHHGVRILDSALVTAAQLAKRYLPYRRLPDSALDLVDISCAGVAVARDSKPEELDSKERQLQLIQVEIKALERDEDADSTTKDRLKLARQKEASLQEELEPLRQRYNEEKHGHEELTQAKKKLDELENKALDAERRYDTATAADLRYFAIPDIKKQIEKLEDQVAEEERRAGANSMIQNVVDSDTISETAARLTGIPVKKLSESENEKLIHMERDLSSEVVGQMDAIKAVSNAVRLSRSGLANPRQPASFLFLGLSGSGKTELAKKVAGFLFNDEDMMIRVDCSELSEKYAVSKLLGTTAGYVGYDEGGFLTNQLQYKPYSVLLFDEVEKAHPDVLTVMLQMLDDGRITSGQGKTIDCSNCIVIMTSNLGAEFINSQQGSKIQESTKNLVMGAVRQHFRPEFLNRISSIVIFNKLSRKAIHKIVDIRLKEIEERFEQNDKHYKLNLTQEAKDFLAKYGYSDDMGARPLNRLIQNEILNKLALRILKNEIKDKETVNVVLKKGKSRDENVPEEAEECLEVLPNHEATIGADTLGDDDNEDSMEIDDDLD
T3 sequence (P31539 whole entry): as the sequence (P31539 whole entry T317A) above, with A317T counted along it
T2 sequence (P31539 whole entry N728A): as the sequence (P31539 whole entry T317A) above, with A317T, N728A counted along it

- Kd [1]: ~1400 nM
- Kd [2]: 16 to 20 nM
- Kd [3]: ~20 nM
- Kd [4]: > 2000 nM
- Kd [5]: ~33 nM
- Kd [6]: > 2000 nM
B1: FITC-labeled casein (natural protein)
chain: RPKHPIKHQGLPQEVLNENLLRFFVAPFPEVFGKEKVNELSKDIGSESTEDQAMEDIKQMEAESISSSEEIVPNSVEQKHIQKEDVPSERYLGYLEQLLRLKKYKVPQLEIVPNSAEERLHSMKEGIHAQQKEPMIGVNQELAYFYPELFRQFYQLDAYPSGAWYYVPLGTQYTDAPSFSDIPNPIGSENSEKTTMPLW
modifications: FITC label (site not stated)
